Data: doi:10.1101/798769

Biological target: NANP 5.5-mer peptide, NP(NANP)5 (Plasmodium falciparum)
Assay: SPR

fold lower affinity (reference not clear: its own NPDP affinity or mAb 4493): 100 fold
Substance: mAb CIS43 (recombinant human IgG1, kappa) (antibody)
